Results from IntAct's records for PubMed 35512704.

B1: Mothers against decapentaplegic homolog 4 (Homo sapiens), Q13485 (parent)
chain: MDNMSITNTPTSNDACLSIVHSLMCHRQGGESETFAKRAIESLVKKLKEKKDELDSLITAITTNGAHPSKCVTIQRTLDGRLQVAGRKGFPHVIYARLWRWPDLHKNELKHVKYCQYAFDLKCDSVCVNPYHYERVVSPGIDLSGLTLQSNAPSSMMVKDEYVHDFEGQPSLSTEGHSIQTIQHPPSNRASTETYSTPALLAPSESNATSTANFPNIPVASTSQPASILGGSHSEGLLQIASGPQPGQQQNGFTGQPATYHHNSTTTWTGSRTAPYTPNLPHHQNGHLQHHPPMPPHPGHYWPVHNELAFQPPISNHPAPEYWCSIAYFEMDVQVGETFKVPSSCPIVTVDGYVDPSGGDRFCLGQLSNVHRTEAIERARLHIGKGVQLECKGEGDVWVRCLSDHAVFVQSYYLDREAGRAPGDAVHKIYPSAYIKVFDLRQCHRQMQQQAATAQAAAAAQAAAVAGNIPGPGSVGGIAPAISLSAAAGIGVDDLRRLCILRMSFVKGWGPDYPRQSIKETPCWIEIHLHRALQLLDEVLHTMPIADPQPLD

Variants of: B1
Conditions: with kat2a_human KAT2A

| Variant | effect of a mutation on the interaction |
| --- | --- |
| G386D | with no effect |

Variants of: B1
Conditions: with kdm5c_human KDM5C

| Variant | effect of a mutation on the interaction |
| --- | --- |
| G386D | with no effect |

Variants of: B1
Conditions: with kdm6a_human KDM6A

| Variant | effect of a mutation on the interaction |
| --- | --- |
| G386D | with no effect |

Variants of: B1
Conditions: with vgfr2_human KDR

| Variant | effect of a mutation on the interaction |
| --- | --- |
| G386D | with no effect |

Variants of: B1
Conditions: with keap1_human KEAP1, Q14145

| Variant | effect of a mutation on the interaction |
| --- | --- |
| G386D | with no effect |

Variants of: B1
Conditions: with klf4_human KLF4, O43474

| Variant | effect of a mutation on the interaction |
| --- | --- |
| G386D | with no effect |

Variants of: B1
Conditions: with lims1_human LIMS1, P48059
Chain of lims1_human LIMS1, P48059 (P48059 whole entry): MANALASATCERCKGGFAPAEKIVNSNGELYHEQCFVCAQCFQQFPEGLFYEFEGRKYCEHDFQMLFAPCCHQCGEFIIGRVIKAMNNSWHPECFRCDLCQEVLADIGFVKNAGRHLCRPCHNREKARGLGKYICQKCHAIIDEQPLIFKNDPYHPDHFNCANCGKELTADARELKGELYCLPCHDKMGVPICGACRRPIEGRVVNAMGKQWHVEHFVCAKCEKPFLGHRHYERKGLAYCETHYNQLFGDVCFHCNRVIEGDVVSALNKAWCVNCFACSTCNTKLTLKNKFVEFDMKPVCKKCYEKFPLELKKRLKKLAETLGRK

| Variant | effect of a mutation on the interaction |
| --- | --- |
| G386D | with no effect |

Variants of: B1
Conditions: with maga6_human MAGEA6, P43360

| Variant | effect of a mutation on the interaction |
| --- | --- |
| G386D | with no effect |

Variants of: B1
Conditions: with mp2k7_human MAP2K7, O14733

| Variant | effect of a mutation on the interaction |
| --- | --- |
| G386D | with no effect |

Variants of: B1
Conditions: with m3k1_human MAP3K1, Q13233

| Variant | effect of a mutation on the interaction |
| --- | --- |
| G386D | with no effect |

Variants of: B1
Conditions: with m3k5_human MAP3K5, Q99683
Chain of m3k5_human MAP3K5, Q99683 (Q99683 whole entry): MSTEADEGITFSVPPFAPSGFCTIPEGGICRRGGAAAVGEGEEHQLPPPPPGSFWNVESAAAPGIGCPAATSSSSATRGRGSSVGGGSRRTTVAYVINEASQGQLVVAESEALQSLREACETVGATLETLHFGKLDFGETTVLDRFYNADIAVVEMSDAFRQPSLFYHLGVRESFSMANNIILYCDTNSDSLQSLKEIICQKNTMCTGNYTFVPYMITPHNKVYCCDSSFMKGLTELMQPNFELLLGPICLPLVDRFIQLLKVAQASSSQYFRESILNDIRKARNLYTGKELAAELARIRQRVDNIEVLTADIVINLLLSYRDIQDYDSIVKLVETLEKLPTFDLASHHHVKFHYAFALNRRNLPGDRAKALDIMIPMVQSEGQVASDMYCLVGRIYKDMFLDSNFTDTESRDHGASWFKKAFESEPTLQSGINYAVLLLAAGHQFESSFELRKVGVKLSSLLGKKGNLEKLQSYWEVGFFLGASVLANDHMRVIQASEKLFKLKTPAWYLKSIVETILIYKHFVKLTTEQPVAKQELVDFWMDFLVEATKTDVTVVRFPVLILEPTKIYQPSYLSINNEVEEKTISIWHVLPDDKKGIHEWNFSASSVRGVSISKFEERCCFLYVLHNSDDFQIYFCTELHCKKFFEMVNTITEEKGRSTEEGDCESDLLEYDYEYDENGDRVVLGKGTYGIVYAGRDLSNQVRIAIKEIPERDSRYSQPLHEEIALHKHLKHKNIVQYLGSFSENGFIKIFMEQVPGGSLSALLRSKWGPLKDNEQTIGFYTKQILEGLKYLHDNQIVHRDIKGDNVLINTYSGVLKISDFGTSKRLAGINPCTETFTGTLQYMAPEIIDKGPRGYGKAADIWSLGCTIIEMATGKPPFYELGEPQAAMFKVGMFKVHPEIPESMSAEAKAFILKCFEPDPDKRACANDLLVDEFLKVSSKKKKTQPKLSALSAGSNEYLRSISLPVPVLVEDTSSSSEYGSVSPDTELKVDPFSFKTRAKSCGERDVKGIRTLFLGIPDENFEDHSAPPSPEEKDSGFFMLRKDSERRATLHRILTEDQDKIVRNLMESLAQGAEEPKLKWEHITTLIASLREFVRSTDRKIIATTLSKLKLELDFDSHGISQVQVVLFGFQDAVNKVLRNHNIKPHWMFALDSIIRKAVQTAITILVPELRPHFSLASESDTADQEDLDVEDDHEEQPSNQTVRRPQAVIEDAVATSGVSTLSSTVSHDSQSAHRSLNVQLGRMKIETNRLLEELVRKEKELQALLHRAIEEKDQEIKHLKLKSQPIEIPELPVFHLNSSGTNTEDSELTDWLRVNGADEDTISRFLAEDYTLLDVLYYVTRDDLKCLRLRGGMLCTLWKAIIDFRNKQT

| Variant | effect of a mutation on the interaction |
| --- | --- |
| G386D | with no effect |

Variants of: B1
Conditions: with mk10_human MAPK10, P53779
Chain of mk10_human MAPK10, P53779 (P53779 whole entry): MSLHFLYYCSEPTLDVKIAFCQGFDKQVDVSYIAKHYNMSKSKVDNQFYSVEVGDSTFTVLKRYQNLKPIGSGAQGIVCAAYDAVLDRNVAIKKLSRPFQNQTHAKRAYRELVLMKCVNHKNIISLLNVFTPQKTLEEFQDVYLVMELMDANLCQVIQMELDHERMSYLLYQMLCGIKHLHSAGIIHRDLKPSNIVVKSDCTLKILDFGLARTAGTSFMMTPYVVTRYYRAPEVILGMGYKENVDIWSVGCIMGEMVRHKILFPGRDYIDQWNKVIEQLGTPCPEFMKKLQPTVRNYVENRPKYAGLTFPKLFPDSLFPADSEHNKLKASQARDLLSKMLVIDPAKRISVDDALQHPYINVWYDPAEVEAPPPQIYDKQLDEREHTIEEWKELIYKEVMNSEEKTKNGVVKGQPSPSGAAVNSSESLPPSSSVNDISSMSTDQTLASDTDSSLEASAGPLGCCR

| Variant | effect of a mutation on the interaction |
| --- | --- |
| G386D | with no effect |

Variants of: B1
Conditions: with mk14_human MAPK14, Q16539
Chain of mk14_human MAPK14, Q16539 (Q16539 whole entry): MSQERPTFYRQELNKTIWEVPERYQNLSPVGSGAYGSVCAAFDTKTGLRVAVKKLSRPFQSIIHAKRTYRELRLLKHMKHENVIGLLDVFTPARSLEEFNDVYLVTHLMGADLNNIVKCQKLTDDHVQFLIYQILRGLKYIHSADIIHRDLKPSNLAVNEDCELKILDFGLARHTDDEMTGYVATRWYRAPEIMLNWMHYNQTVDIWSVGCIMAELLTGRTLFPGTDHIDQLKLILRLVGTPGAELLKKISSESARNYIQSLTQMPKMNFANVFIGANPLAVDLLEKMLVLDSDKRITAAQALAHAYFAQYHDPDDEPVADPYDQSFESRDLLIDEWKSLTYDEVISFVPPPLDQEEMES

| Variant | effect of a mutation on the interaction |
| --- | --- |
| G386D | with no effect |

Variants of: B1
Conditions: with mk03_human MAPK3, P27361

| Variant | effect of a mutation on the interaction |
| --- | --- |
| G386D | with no effect |

Variants of: B1
Conditions: with mk04_human MAPK4, P31152

| Variant | effect of a mutation on the interaction |
| --- | --- |
| G386D | with no effect |

Variants of: B1
Conditions: with mk06_human MAPK6, Q16659

| Variant | effect of a mutation on the interaction |
| --- | --- |
| G386D | with no effect |

Variants of: B1
Conditions: with mk07_human MAPK7, Q13164

| Variant | effect of a mutation on the interaction |
| --- | --- |
| G386D | with no effect |

Variants of: B1
Conditions: with mcl1_human MCL1, Q07820

| Variant | effect of a mutation on the interaction |
| --- | --- |
| G386D | with no effect |

Variants of: B1
Conditions: with mitf_human MITF

| Variant | effect of a mutation on the interaction |
| --- | --- |
| G386D | with no effect |

Variants of: B1
Conditions: with mtor_human MTOR

| Variant | effect of a mutation on the interaction |
| --- | --- |
| G386D | with no effect |

Variants of: B1
Conditions: with myc_human MYC

| Variant | effect of a mutation on the interaction |
| --- | --- |
| G386D | with no effect |

Variants of: B1
Conditions: with nf1_human NF1, P21359

| Variant | effect of a mutation on the interaction |
| --- | --- |
| G386D | with no effect |

Variants of: B1
Conditions: with merl_human NF2, P35240
Chain of merl_human NF2, P35240 (P35240 whole entry): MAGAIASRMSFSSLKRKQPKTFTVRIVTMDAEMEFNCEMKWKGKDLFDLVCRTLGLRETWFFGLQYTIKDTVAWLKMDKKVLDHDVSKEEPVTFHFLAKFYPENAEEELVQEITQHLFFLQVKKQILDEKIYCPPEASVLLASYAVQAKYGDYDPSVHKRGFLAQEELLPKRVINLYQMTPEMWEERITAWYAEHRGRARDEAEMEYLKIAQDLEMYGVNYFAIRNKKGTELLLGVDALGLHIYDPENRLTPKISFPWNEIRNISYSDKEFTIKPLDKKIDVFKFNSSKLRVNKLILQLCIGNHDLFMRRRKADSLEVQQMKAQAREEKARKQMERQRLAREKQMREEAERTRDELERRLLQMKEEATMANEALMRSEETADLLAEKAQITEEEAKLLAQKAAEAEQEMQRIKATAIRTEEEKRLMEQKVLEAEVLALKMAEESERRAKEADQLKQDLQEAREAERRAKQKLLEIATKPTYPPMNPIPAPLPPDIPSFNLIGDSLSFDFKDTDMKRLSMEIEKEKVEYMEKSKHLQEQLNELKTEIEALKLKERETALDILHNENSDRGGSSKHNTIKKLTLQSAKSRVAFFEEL

| Variant | effect of a mutation on the interaction |
| --- | --- |
| G386D | with no effect |

Variants of: B1
Conditions: with nfic_human NFIC

| Variant | effect of a mutation on the interaction |
| --- | --- |
| G386D | with no effect |

Variants of: B1
Conditions: with ikba_human NFKBIA

| Variant | effect of a mutation on the interaction |
| --- | --- |
| G386D | with no effect |

Variants of: B1
Conditions: with notc2_human NOTCH2, Q04721

| Variant | effect of a mutation on the interaction |
| --- | --- |
| G386D | with no effect |

Variants of: B1
Conditions: with nox1_human NOX1, Q9Y5S8
Chain of nox1_human NOX1, Q9Y5S8 (Q9Y5S8 whole entry): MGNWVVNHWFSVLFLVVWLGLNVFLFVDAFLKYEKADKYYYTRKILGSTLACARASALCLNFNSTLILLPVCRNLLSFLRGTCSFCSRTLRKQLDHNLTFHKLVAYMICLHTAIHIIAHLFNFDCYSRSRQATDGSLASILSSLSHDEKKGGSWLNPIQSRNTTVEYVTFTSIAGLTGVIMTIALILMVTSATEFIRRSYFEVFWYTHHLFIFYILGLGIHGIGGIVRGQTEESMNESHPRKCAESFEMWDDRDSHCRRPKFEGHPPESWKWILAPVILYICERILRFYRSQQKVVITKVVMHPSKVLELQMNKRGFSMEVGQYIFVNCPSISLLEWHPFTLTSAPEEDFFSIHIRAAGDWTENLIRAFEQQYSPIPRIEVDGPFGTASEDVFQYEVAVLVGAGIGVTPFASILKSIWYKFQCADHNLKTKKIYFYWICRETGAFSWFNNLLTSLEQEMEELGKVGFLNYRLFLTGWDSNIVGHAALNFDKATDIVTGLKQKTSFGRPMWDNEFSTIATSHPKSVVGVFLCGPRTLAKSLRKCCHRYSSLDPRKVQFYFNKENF

| Variant | effect of a mutation on the interaction |
| --- | --- |
| G386D | with no effect |

Variants of: B1
Conditions: with ntrk2_human NTRK2, Q16620

| Variant | effect of a mutation on the interaction |
| --- | --- |
| G386D | with no effect |

Variants of: B1
Conditions: with pak3_human PAK3, O75914

| Variant | effect of a mutation on the interaction |
| --- | --- |
| G386D | with no effect |

Variants of: B1
Conditions: with prkn_human PRKN

| Variant | effect of a mutation on the interaction |
| --- | --- |
| G386D | with no effect |

Variants of: B1
Conditions: with pax5_human PAX5, Q02548

| Variant | effect of a mutation on the interaction |
| --- | --- |
| G386D | with no effect |

Variants of: B1
Conditions: with pax9_human PAX9, P55771
Chain of pax9_human PAX9, P55771 (P55771 whole entry): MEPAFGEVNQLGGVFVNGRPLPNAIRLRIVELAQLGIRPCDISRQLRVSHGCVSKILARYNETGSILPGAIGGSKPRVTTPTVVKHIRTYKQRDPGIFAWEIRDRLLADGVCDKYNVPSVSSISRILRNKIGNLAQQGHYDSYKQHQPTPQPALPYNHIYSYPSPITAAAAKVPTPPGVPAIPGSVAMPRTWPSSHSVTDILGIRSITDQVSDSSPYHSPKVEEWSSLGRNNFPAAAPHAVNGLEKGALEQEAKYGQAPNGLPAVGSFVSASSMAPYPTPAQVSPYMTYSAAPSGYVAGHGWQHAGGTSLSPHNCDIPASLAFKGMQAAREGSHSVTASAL

| Variant | effect of a mutation on the interaction |
| --- | --- |
| G386D | with no effect |

Variants of: B1
Conditions: with pb1_human PBRM1, Q86U86

| Variant | effect of a mutation on the interaction |
| --- | --- |
| G386D | with no effect |

Variants of: B1
Conditions: with pcbp1_human PCBP1, Q15365
Chain of pcbp1_human PCBP1, Q15365 (Q15365 whole entry): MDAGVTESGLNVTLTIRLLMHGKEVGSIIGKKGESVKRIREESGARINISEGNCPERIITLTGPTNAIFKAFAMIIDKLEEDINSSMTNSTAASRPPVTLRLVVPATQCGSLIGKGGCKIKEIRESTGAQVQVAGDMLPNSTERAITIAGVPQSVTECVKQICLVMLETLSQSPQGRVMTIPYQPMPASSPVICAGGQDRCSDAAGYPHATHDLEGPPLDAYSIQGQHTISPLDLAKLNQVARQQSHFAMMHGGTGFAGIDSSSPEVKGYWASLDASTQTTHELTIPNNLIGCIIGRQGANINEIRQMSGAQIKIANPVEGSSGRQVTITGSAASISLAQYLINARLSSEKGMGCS

| Variant | effect of a mutation on the interaction |
| --- | --- |
| G386D | with no effect |

Variants of: B1
Conditions: with pgfra_human PDGFRA

| Variant | effect of a mutation on the interaction |
| --- | --- |
| G386D | with no effect |

Variants of: B1
Conditions: with pgfrb_human PDGFRB

| Variant | effect of a mutation on the interaction |
| --- | --- |
| G386D | with no effect |

Variants of: B1
Conditions: with pdk1_human PDK1, Q15118
Chain of pdk1_human PDK1, Q15118 (Q15118 whole entry, looked up): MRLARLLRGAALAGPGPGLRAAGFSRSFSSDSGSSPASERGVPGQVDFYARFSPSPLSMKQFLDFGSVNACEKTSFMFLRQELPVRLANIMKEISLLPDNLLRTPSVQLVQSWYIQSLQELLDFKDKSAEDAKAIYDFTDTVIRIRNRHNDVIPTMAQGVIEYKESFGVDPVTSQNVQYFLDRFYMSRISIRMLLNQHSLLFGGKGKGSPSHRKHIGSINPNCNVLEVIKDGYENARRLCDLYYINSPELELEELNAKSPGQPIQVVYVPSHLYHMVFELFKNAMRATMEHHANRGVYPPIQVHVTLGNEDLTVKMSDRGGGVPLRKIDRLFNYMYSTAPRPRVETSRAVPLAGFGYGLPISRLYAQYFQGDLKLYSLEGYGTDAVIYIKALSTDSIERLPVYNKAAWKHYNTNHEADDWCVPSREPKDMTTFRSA

| Variant | effect of a mutation on the interaction |
| --- | --- |
| G386D | with no effect |

Variants of: B1
Conditions: with PIK3C2B

| Variant | effect of a mutation on the interaction |
| --- | --- |
| G386D | with no effect |
